Test results published in doi:10.1101/348268.

Experiments:
[1] = biological target: Mesoplasma florum ribonucleotide reductase protein R2 (MfR2), active form with meta-hydroxylated Tyr126 (DOPA) (Mesoplasma florum); test: crystal structure
[2] = biological target: Mesoplasma florum ribonucleotide reductase protein R2 (MfR2), inactive form with unmodified Tyr126 (Mesoplasma florum); test: crystal structure

Substance | stoichiometry N [1] | stoichiometry N [2]
Mesoplasma florum ribonucleotide reductase protein R2 (MfR2), active form with meta-hydroxylated Tyr126 (DOPA) (enzyme) | 2 | –
Mesoplasma florum ribonucleotide reductase protein R2 (MfR2), inactive form with unmodified Tyr126 (enzyme) | – | 2
